Test results reported in US8916159B2, “Selenocysteine mediated hybrid antibody molecules” (The United States of America, as represented by the …, priority 2007, dated 2014).
Where two headings read alike, the source gives them in different places. Non-standard residues stand in square brackets, D forms with d. Groups on a side chain read outwards from the residue. No end group written: not given here. folate‑alkyne = folate derivative bearing an alkyne group; Sec = N[C@@H](C[SeH])C(=O)O; biotin‑azide = biotin-azide

Experiments:
folate receptor = molecular target: T1, folate receptor (Homo sapiens, UniProt P15328); assay: Flow cytometry binding to SKOV-3 cells expressing folate receptor; conditions: SKOV-3, three click reaction conditions, FIG. 17
T1 construct: endogenous in cells; host or cells: SKOV-3
Protocol: The results are depicted in the flow cytometry plot of FIG. 17.
The folate was further equipped with an alkyne group using methods described in Thomas et al., Poster MEDI-409, 238th ACS National Meeting, Washington, D.C. (Aug. 16-20, 2009). Using azide-alkyne Huisgen cycloaddition (“click chemistry”) under various reaction conditions, biotin-azide was added to the resulting Fc-Sec-His/folate-alkyne. The results of three reaction conditions are also depicted in the flow cytometry plot of FIG. 17.

integrin α4 = molecular target: T2, integrin α4 (Homo sapiens, UniProt P05556+P13612); assay: Competition with anti-integrin α4 mAb for binding to integrin α4β1-expressing lymphoma cells; conditions: PEG-SU-Lys-Lys-mal linker conjugate, FIG. 14
T2 construct: endogenous in cells
Text: Using solid-phase synthesis techniques as described in Thomas et al., Bioorg. Medicinal Chem. Letters, 18: 5785-88 (2008), the PEG-SU-Lys-Lys-mal linker was used to couple LLP2A to Fc-Sec. A biotin reporter molecule was employed as described in Example 2 to allow detection of Fc covalent adducts by avidin pull-down experiments followed by ELISA visualization. The Fc-Sec-LLP2A conjugate was then incupated with integrin α4β1-expressing cells. The cells were washed and then treated with Cy5-labeled rabbit anti-human IgG. Under these conditions, cells only fluoresced if both the Fc and LLP2A components of the hybrid construct were present.

Raji cells [1] = assay: Flow cytometry binding to Raji cells; parameters: species or system Human; conditions: for fluorescence signal on Raji cells after exposure of protein to FITC maleimide derivative: FIG. 11C
Protocol: Flow cytometry assays were conducted on the resulting conjugates. Human Burkitt's lymphoma cell line Raji was purchased from ATCC. All incubations were for 1 hour on ice. […] After washing twice with 1% (v/v) FCS/PBS, the cells were incubated with a 1:25 dilution of PE-coupled streptavidin (BD Biosciences) or with FITC-coupled goat anti-human Fab polyclonal (Fab′)2 fragments (Jackson ImmunoResearch Laboratories). […] After washing twice as before, the cells were resuspended in 400 μL 1% (v/v) FCS/PBS and analyzed using a FACScan instrument (Becton-Dickinson). For the competition experiment, the cells were first incubated with the anti-CD52 monoclonal antibody CAMPATH® or Rituximab (all 0.6 μM). For detection, a 1:25 dilution of PE-coupled streptavidin (BD Biosciences) was used.

Raji cells [2] = conditions: 0.6 μM; for complement-dependent cytotoxicity with rabbit complement: 10% rabbit complement 2 hours 37° C.
Protocol: To determine whether Sec-conjugation had any effect on the cytotoxic effects of Rituximab, Raji cells were centrifuged and resuspended in 1% (v/v) FCS/PBS, and aliquots of 50 μL containing 5×10^5 cells were distributed into a V-bottom 96-well plate (Corning). After incubation with Rituximab, Rituxi-Sec-His/fluorescein, or Rituxi-Fab-Sec-His/biotin (0.6 μM) for 1 hour on ice, cells were washed twice and incubated with 10% rabbit complement of 3-4 weeks old rabbits (Pel-Freez) for 2 hours at 37° C. After the addition of 100 μg/ml propidium iodide (PI), dead cells were detected by PI accumulation using a FACScan instrument (Becton-Dickinson).

[3] = Serum levels in mice after i.v. injection, flow cytometry using Raji cells; assay type: in vivo, C57BL/6 mice; conditions: i.v. 100 μL of 3 mg/mL, bleeds 30 min to 96 h
Protocol: The mouse study was carried out by Biocon, Inc. (Rockville, Md.) in accordance with the Guide for the Care and Use of Laboratory Animals published by the National Institutes of Health. […] Sera from retro-orbital bleeds were prepared 30 min, 24 h, 48 h, 72 h, and 96 h after injection. Sera were diluted ten-fold in 1% (v/v) FCS/PBS and analyzed by flow cytometry using Raji cells and Cy5-coupled goat anti-human F(ab′)2 polyclonal antibodies (Jackson ImmunoResearch) or PE-coupled streptavidin as described in Example 10 (FIG. 16C).

T1 sequence (P15328 25-234): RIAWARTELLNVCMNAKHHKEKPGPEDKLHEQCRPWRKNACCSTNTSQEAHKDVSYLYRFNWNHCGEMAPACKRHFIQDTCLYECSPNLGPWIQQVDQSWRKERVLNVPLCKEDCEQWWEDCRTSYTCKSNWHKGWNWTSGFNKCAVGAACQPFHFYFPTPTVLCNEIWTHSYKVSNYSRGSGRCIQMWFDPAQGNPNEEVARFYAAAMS

Fc-Sec-His/folate-alkyne: Fc-Sec-His folate conjugate equipped with an alkyne group; biotin-azide clicked on (chain (part 1 of 2) EPKSSDKTHTCPPCP; chain (part 2 of 2) A[Sec]([folate‑alkyne-biotin‑azide])HHHHHH; not fully specified; cysteine pairing not given here; also: biotin-azide clicked on)
folate binding after biotin-azide click onto alkyne conjugate (folate receptor): retained its folate binding properties

Fc-Sec-LLP2A: LLP2A coupled to Fc-Sec using the PEG-SU-Lys-Lys-mal trifunctional linker with biotin reporter (chain (part 1 of 2) EPKSSDKTHTCPPCP; chain (part 2 of 2) Ala-X; not fully specified (some residues); cysteine pairing not given here; also: LLP2A coupled via PEG-SU-Lys-Lys-mal trifunctional linker with biotin reporter, site not given here)
binding to lymphoma cells in the presence of anti-integrin α4 mAb (integrin α4): diminished binding

Rituximab-Sec-His/fluorescein: Rituximab-Sec-His conjugated at Sec to fluorescein-5-maleimide (FITC derivative with maleimide moiety)
fluorescence signal on Raji cells after exposure of protein to FITC maleimide derivative (Raji cells [1]): clear and homogenous signal | complement-dependent cytotoxicity with rabbit complement (Raji cells [2]; listed as Rituxi-Sec-His/fluorescein): as potent as Rituximab | complement-dependent cytotoxicity with rabbit complement (Raji cells [2]; listed as Rituximab-Sec-His/FITC): equal cytotoxicity

Rituximab-stop: Rituximab protein without inserted selenocysteine
fluorescence signal on Raji cells after exposure of protein to FITC maleimide derivative (Raji cells [1]): only basal levels

Rituximab: commercially available CD20 antibody [reference compound]
binding to Raji cells (Raji cells [1]; 0.6 μM, 1 hour on ice, FIG. 11A): equal affinities | complement-dependent cytotoxicity with rabbit complement (Raji cells [2]): strong cytotoxic effect | cytotoxicity of antibody alone, without rabbit serum (Raji cells [2]; no rabbit serum, FIG. 12A): neither the antibody nor rabbit serum alone mediated complement-dependent cytotoxicity | serum signal over the course of the experiment [3]: only marginal weakening
